{
  "source": "paper doi:10.1101/2025.07.28.667101",
  "target": "poly-C3-GFOGMR (disulfide-linked polymer of the triple-helical peptide C3-GFOGMR)",
  "assay": "ELISA",
  "data": [
    {"substance": "GST-α2I domain E318W mutant (from UniProt P17301 169-366) (domain or fragment)", "values": [
      {"measurement": "affinity relative to the T221A mutant", "result": 0.0033, "unit": "fold"}
    ]}
  ]
}
